Measurements from US20080027145A1, “Therapeutic Molecules and Methods for Generating and/or Selecting Same” (priority 2004, published 2008).

B1: Bmf: BH3-only protein Bmf, expressed from retrovirus in MEFs, recombinant in GST pull-down (protein, UniProt Q91ZE9 1-185, looked up)
Bcl-2-modifying factor: MEPPQCVEELEDDVFQSEDGEPGTQPGGLLSADLFAQSQLDCPLSRLQLFPLTHCCGPGLRPISQEDKATQTLSPASPSQGVMLPCGVTEEPQRLFYGNAGYRLPLPASFPAGSPLGEQPPEGQFLQHRAEVQIARKLQCIADQFHRLHTQQHQQNRDRAWWQVFLFLQNLALNRQENREGVGPW
B2: Bik: full-length human BH3-only protein Bik expressed in cells (protein, UniProt Q13323 1-160, looked up)
chain: MSEVRPLSRDILMETLLYEQLLEPPTMEVLGMTDSEEDLDPMEDFDSLECMEGSDALALRLACIGDEMDVSLRAPRLAQLSEVAMHSLGLAFIYDQTEDIRDVLRSFMDGFTTLKENIMRFWRSPNPGSWVSCEQVLLALLLLLALLLPLLSGGLHLLLK
modifications: full-length
B3: Bad: full-length mouse BH3-only protein Bad expressed in cells, recombinant in GST pull-down (protein, UniProt Q61337 1-204, looked up)
chain: MGTPKQPSLAPAHALGLRKSDPGIRSLGSDAGGRRWRPAAQSMFQIPEFEPSEQEDASATDRGLGPSLTEDQPGPYLAPGLLGSNIHQQGRAATNSHHGGAGAMETRSRHSSYPAGTEEDEGMEEELSPFRGRSRSAPPNLWAAQRYGRELRRMSDEFEGSFKGLPRPKSAGTATQMRQSAGWTRIIQSWWDRNLGKGGSTPSQ
modifications: full-length
notes: full-length mouse BH3-only protein Bad expressed in cells, recombinant in GST pull-down
B4: Noxa: full-length BH3-only protein Noxa expressed in cells (mouse Noxa bearing two BH3s in co-immunoprecipitation) (protein, UniProt Q9JM54 1-103, looked up)
chain: MPGRKARRNAPVNPTRAELPPEFAAQLRKIGDKVYCTWSAPDITVVLAQMPGKSQKSRMRSPSPTRVPADLKDECAQLRRIGDKVNLRQKLLNLISKLFNLVT
modifications: full-length

Assays:
[1] = biological target: GST Mcl-1 (Mus musculus, UniProt P97287); experiment: GST pull-down with recombinant BH3-only proteins; type: binding
[2] = test system: mouse embryonic fibroblasts (MEFs); experiment: Killing of MEFs after retroviral expression, viability 24 hours after infection; type: cell-based; conditions: for killing of MEFs: retroviral expression, 24 hours after infection; for killing of MEFs on co-expression with the NoxaBH3: co-expressed with GFP-Bims NoxaBH3, 24 hours
Experimental: FIG. 7 is a graphical representation showing that BH3-only proteins that bind selective targets have weak killing activity. (A) The affinities of BH3-only peptides for pro-survival proteins (tabulated in FIG. 3A) were inversely plotted to facilitate comparison of the patterns of BH3 binding. […] Immortalized 3T9 MEFs were infected with retroviruses expressing only GFP (control), or one of the BH3-only proteins and GFP. The viability of the infected (GFP^+ve) cells was determined by PI exclusion 24 hours after infection. The histograms represent means±1SD of at least 3 experiments. […] The filter was probed with a rat monoclonal anti-FLAG antibody. *Degradation product of Mcl-1. […] Viability of MEFs infected with retroviruses encoding the indicated proteins (GFP^+ve) was analyzed 24 hours after infection. The histograms represent means±1SD of at least 3 experiments. (E) Long-term survival of MEFs infected with BH3 expressing retroviruses. One hundred retrovirally-infected cells were plated and the absolute number of GFP^+ve colonies formed after 6 days scored. […] The data represent the average number of GFP^+ve colonies formed±1SD from at least 3 experiments. To assess the biological relevance of the selective binding, retroviral delivery was used to compare the ability of different BH3-only proteins to kill wild-type mouse embryonic fibroblasts (MEFs). To monitor expression of the introduced gene, a vector (pMIG) in which its expression is coupled via an internal ribosomal entry site (IRES) to that of green fluorescent protein (GFP) was used (Van Parijs et al., Immunity 11:281-288, 1999). The cells were efficiently infected (>90%) and the introduced BH3-only proteins were comparably expressed. Viability of the infected (GFP^+ve) cells was scored 24 hours after infection (FIGS. 7A, 7B) and in long-term colony assays (FIG. 7E). […] Thus, the neutralization of Mcl-1 by Noxa should be complemented by co-expression of a BadBH3 to neutralize Bcl-2 and Bcl-xL in MEFs (FIG. 8A).

[3] = biological target: T1, Mcl-1 ΔN151 ΔC23 (Mus musculus, UniProt P97287); experiment: Mcl-1 ΔN151 ΔC23
T1 construct: mouse Mcl-1 (Acc. no. NP_031588; residues 152-308); GST (N, cleaved yes); made in house
Experimental: (§1) Table printed on a drawing sheet, FIGURE 2A
Head of the field: Mcl-1 ΔN151 ΔC23
(§2) The patent's description of the figure: FIG. 2 is a graphical representation showing pro-apoptotic BH3-only and pro-survival Bcl-2-like proteins have distinctive interactions. (A) Using competitive binding assays, the IC50 (nM) for the indicated interactions were determined. The results shown are from representative experiments; the variation observed in multiple experiments was less than two-fold (using different chips or protein batches). (B) Relative binding affinities of interactions (tabulated in A) were inversely plotted. The BH3 binding profiles of pro-survival proteins are shown. In (C), the sequences of human Bcl-2 (residues 93-202), human Bcl-xL (86-195), human Bcl-w (42-151), mouse Mcl-1 (190-300) and mouse A1 (33-148) that form their BH3 binding grooves (α-helices 2 to 8; Hinds et al., EMBO J 22:1497-1507, 2003) were compared and presented as a phylogenetic tree. Color reproductions are available from the patentees on request.
(§3) First copying reader's note: The table itself prints no unit; IC50 (nM) is printed only on the axis of panel B of the same figure, which plots the same values.
Where the first naming reader finds the target: head: Mcl-1 ΔN151 ΔC23

[4] = biological target: T2, A1 ΔC20 (Mus musculus, UniProt Q07440); experiment: A1 ΔC20
T2 construct: mouse A1 (Acc. no. NP_033872; residues 1-152); GST (N, cleaved yes); made in house
Experimental: as §1
Head of the field: A1 ΔC20
as §2, §3
Where the first naming reader finds the target: head: A1 ΔC20

[5] = biological target: T3, FLAG-tagged Bcl-xL (Homo sapiens, UniProt Q07817); experiment: Co-immunoprecipitation in transfected 293T cells; type: binding; conditions: tagged full-length proteins
T3 construct: expressed in transfected cells; host or cells: HEK293T
Source text: (§4) Equivalent ^35S-labeled lysates harvested from 293T cells were immunoprecipitated with antibodies to the HA, FLAG (FL) or control (C) tags.
(§5) The maintenance, transfection and metabolic labeling of the human embryonic kidney (HEK) 293T cells with ^35S-methionine/cysteine (NEN) as well as co-immunoprecipitation have been described (Huang et al., Supra; Moriishi et al., Proc Natl Acad Sci USA 96:9683-9688, 1999; O'Conner et al., Supra). Briefly, equivalent TCA-precipitable lysates were immunoprecipiated using the mouse monoclonal antibodies to HA (HA.11; CRP), FLAG (M2; Sigma) and control Glu-Glu (CRP) tags. The proteins were resolved by SDS:PAGE, transferred onto nitrocellulose membranes and detected by fluorography (Amplify; Amersham Biosciences).
(§6) To verify the in vitro findings, interactions of selected pairs of the full-length N-terminally tagged proteins were investigated in mammalian cells by co-immunoprecipitation. […] The cells were metabolically labeled with ^35S-methionine/cysteine to permit semi-quantitative assessment of any interaction between co-associating radiolabeled proteins.
(§7) To verify the in vitro findings, selected pairs of the full-length N-terminally tagged proteins associated in mammalian cells were investigated by co-immunoprecipitation. […] The cells were metabolically labeled with ^35S-methionine/cysteine to permit semi-quantitative assessment of any interaction between the labeled proteins or interaction was gauged by the more sensitive western blotting.

[6] = test system: mouse embryonic fibroblasts (MEFs); experiment: Long-term colony assay of retrovirally infected MEFs; type: cell-based; conditions: colonies after 6 days
Experimental: FIG. 7 is a graphical representation showing that BH3-only proteins that bind selective targets have weak killing activity. (A) The affinities of BH3-only peptides for pro-survival proteins (tabulated in FIG. 3A) were inversely plotted to facilitate comparison of the patterns of BH3 binding. […] Immortalized 3T9 MEFs were infected with retroviruses expressing only GFP (control), or one of the BH3-only proteins and GFP. The viability of the infected (GFP^+ve) cells was determined by PI exclusion 24 hours after infection. The histograms represent means±1SD of at least 3 experiments. […] The filter was probed with a rat monoclonal anti-FLAG antibody. *Degradation product of Mcl-1. […] Viability of MEFs infected with retroviruses encoding the indicated proteins (GFP^+ve) was analyzed 24 hours after infection. The histograms represent means±1SD of at least 3 experiments. (E) Long-term survival of MEFs infected with BH3 expressing retroviruses. One hundred retrovirally-infected cells were plated and the absolute number of GFP^+ve colonies formed after 6 days scored. […] The data represent the average number of GFP^+ve colonies formed±1SD from at least 3 experiments. […] Viability of the infected (GFP^+ve) cells was scored 24 hours after infection (FIGS. 7A, 7B) and in long-term colony assays (FIG. 7E).

[7] = biological target: T4, FLAG-tagged Bcl-2 (Homo sapiens, UniProt P10415); experiment: Co-immunoprecipitation in transfected 293T cells; type: binding; conditions: tagged full-length proteins
T4 construct: expressed in transfected cells; host or cells: HEK293T
Source text: as §4, §5, §6, §7

[8] = biological target: T5, FLAG-tagged Mcl-1 (Mus musculus, UniProt P97287); experiment: Co-immunoprecipitation in transfected 293T cells; type: binding; conditions: tagged full-length proteins
T5 construct: expressed in transfected cells; host or cells: HEK293T
Source text: as §4, §5, §6, §7

[9] = biological target: T6, Bcl-2 ΔC22 (Homo sapiens, UniProt P10415); experiment: Bcl-2 ΔC22
T6 construct: Human Bcl-2 (Acc. no. NP_000624; residues 1-217); made in house
Experimental: as §1
Head of the field: Bcl-2 ΔC22
as §2, with “In (C), the sequences of human Bcl-2 (residues 93-202), human Bcl-xL (86-195), human Bcl-w (42-151), mouse Mcl-1 (190-300) and mouse A1 (33-148) that form their BH3 binding grooves (α-helices 2 to 8; Hinds et al., EMBO J 22:1497-1507, 2003) were compared and presented as a phylogenetic tree.” left out
as §3
Where the first naming reader finds the target: head: Bcl-2 ΔC22

[10] = biological target: T7, Bcl-xL ΔC24 (Homo sapiens, UniProt Q07817); experiment: Bcl-xL ΔC24
T7 construct: Human Bcl-xL (Acc. no. NP_612815; residues 1-209); GST (N, cleaved yes); made in house
Experimental: as §1
Head of the field: Bcl-xL ΔC24
as §2, §3
Where the first naming reader finds the target: head: Bcl-xL ΔC24

[11] = biological target: T8, Bcl-w ΔC29 (Homo sapiens, UniProt Q92843, A128E/C29S); experiment: Bcl-w ΔC29
T8 construct: human Bcl-w (Acc. no. NP_004041; residues 1-164; C29S A128E); made in house
Experimental: as §1, §2, §3

T3 sequence (Q07817 whole entry): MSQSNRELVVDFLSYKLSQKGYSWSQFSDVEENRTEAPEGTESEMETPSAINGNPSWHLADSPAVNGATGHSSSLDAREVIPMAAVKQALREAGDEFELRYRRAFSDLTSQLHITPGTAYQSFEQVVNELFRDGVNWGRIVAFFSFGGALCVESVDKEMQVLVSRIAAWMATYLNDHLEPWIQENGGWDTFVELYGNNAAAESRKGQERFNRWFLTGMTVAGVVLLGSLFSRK
T2 sequence (Q07440 1-152, stated change not applied): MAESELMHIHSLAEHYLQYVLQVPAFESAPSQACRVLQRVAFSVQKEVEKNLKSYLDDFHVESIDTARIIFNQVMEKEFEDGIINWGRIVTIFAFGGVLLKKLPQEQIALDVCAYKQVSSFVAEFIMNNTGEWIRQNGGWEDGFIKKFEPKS
T6 sequence (P10415 1-217, stated change not applied): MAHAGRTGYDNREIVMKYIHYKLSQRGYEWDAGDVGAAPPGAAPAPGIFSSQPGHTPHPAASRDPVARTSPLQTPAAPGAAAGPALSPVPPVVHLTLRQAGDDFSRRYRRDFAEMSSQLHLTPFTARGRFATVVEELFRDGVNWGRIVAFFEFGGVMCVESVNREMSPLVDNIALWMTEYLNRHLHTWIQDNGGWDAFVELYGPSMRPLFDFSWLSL
T7 sequence (Q07817 1-209, stated change not applied): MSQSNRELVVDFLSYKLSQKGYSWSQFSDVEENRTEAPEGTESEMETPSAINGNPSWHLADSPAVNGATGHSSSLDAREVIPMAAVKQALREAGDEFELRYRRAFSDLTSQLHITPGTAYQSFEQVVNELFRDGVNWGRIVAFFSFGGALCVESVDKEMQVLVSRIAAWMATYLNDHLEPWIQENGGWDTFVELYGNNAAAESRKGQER
T8 sequence (Q92843 1-164 C29S/A128E): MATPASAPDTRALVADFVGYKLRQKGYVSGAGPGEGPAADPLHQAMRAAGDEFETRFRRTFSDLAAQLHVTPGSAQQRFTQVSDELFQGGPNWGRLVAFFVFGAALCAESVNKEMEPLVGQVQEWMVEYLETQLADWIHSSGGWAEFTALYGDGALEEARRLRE
T5 sequence (P97287 whole entry): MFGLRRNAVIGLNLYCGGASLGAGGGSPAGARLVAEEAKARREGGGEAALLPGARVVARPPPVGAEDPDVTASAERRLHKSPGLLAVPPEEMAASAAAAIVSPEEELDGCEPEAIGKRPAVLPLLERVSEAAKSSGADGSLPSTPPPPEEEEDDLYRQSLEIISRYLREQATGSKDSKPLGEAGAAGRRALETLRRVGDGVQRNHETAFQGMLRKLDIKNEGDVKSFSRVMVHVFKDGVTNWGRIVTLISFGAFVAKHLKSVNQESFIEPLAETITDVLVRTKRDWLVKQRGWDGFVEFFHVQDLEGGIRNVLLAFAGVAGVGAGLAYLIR
GST Mcl-1, sequence (P97287 whole entry): as above
T1 sequence (P97287 152-308, stated change not applied): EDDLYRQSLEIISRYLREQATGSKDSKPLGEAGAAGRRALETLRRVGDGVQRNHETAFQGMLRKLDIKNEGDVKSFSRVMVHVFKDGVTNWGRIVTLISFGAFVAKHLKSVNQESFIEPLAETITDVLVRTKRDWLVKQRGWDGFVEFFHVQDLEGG
T4 sequence (P10415 whole entry): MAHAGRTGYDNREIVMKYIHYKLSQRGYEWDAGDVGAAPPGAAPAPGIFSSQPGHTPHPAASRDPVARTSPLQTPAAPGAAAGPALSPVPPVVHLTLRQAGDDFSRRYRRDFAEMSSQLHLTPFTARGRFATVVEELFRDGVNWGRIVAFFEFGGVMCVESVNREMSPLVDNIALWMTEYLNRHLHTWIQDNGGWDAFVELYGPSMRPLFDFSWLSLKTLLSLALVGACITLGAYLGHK

Molecule	binding of GST Mcl-1 [1]	killing of MEFs [2]	IC50 [3]	IC50 [4]	interaction with Bcl-xL by co-immunoprecipitation [5]	killing of MEFs on co-expression with the NoxaBH3 [2]	long-term survival, GFP+ve colonies [6]	interaction with Bcl-2 by co-immunoprecipitation [7]	interaction with Mcl-1 by co-immunoprecipitation [8]	IC50 [9]	IC50 [10]	IC50 [11]	killing of MEFs on co-expression with the BadBH3 ([2]; co-expressed with GFP-Bims BadBH3, 24 hours)
B1	weakly	much less potent killers	1100 nM	1800 nM	–	–	–	–	–	–	–	–	–
B2	–	much less potent killers	–	58 nM	to a greater extent than Bcl-2 or Mcl-1	potently enhanced	modest effects	–	–	–	–	–	–
B3	not	much less potent killers	> 100000 nM	15000 nM	bound well	–	–	bound well	not appreciably	16 nM	5.3 nM	30 nM	–
B4	–	much less potent killers	–	180 nM	did not	did not augment	modest effects	–	interacted only with Mcl-1	> 100000 nM	> 100000 nM	> 100000 nM	as much cell death as expression of Bims alone
